# From the nanobody polyreactivity screen of Harvey et al. (2022)
# Assay: yeast display, Sf9 membrane polyspecificity reagent, FACS + sequencing; frameworks hold sequencing errors
# Method in brief: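 Using colony PCR, genes from sorted yeast display clones were amplified, then sequenced on MiSeq at 2 × 250 and filtered by CDR length. The clones had been stained with 10% biotinylated, detergent-solubilized Sf9 membrane reagent for 1 hour at 4 °C and sorted by FACS into low and high (top ~1%) gates on anti-HA and streptavidin fluorescence. Polyreactivity labels come from the gate of origin.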
row,Sequence,polyreactivity (PSR sort gate)
1,QVQLVESGGGLVQAGGSLRLSCAASGIIFWYYAMGWYRQAPGKERELVAAISQSGGRTYYADSVKGRFTISRDNAKNTVYLQMNSLKPEDTAVYYCAAEPYTGYGYWGQGTQVTVSS,high polyreactivity
2,QVQLVESGGGLVQAGGSLRLSCAASGIIFWYYAMGWYRQAPGKERELVASISGTGGTTYYADSVKGRFTISRDNAKNTVYLQMNSLKPEDTAVYYCAALSGQHDYDYWGQVTQVTVSS,low polyreactivity
3,QVQLVESGGGLVQAGGSLRLSCAASGIIFYDNAMGWYRQAPGKERELVAAISWGGGDTYYADSVKGRFTISRDNAKNTVYLQMNSLKPEDTAVYYCAAGNLPDYDYWGQGTQVTVSS,low polyreactivity
4,QVQLVESGGGLVQAGGSLRLSCAASGIIFYDYAMGWYREAPGKERVLVGAISRSGGSTYYADSVKGRFTISRDNAKYTVYLQMNCLKPEDTAVYYCNAKYPFRKKYYYWGQGTQVTVAS,high polyreactivity
5,QVQLVESGGGLVQAGGSLRLSCAASGIIFYDYAMGWYRQAPGKERELVAAISGSGVGTYYADSVKGRFTISRDNAKNTVYLQMNSLKPEDTAVYYCATRYQWGGPYYRYDYWGQGTQVTVSS,high polyreactivity
6,QVQLVESGGGLVQAGGSLRLSCAASGIIFYDYAMGWYRQAPGKERELVAAITSNGDNTYYADSVKGRFTISRDNAKNTVYLQMNSLKPEDTAVYYCAVDGSFAADFDNYLEEYGYWGQGTLVTVSS,low polyreactivity
7,QVQLVESGGGLVQAGGSLRLSCAASGIIFYDYAMGWYRQAPGKERELVAAITSNGDNTYYADSVKGRFTISRDNAKNTVYLQMNSLKPEDTAVYYCAVDGSFAADFDNYLEEYGYWGQGTQVSVSS,low polyreactivity
8,QVQLVESGGGLVQAGGSLRLSCAASGIIFYDYAMGWYRQAPGKERELVASISWSSGSTYYADSVKGRFTISRDNAKNTVYLQMNSLKPEDTAVYYCAADGYPLQLYNYWGQGTQVTVSS,low polyreactivity
9,QVQLVESGGGLVQAGGSLRLSCAASGIIFYEYVMGWYRQAPGKERELVATISSIGGSTYYADSVKGRFTISRDNAKNTVYLQMNSLKPEDTAVYYCAADPDPVVSRGGNWYGDDYWGQGTQVTVSS,high polyreactivity
10,QVQLVESGGGLVQAGGSLRLSCAASGIIFYGNVMGWYRQAPGKERELVAAITSTGSTSYADSVKGRFTMSRDNGKNTVYLQMNSLKPEDTAVYYCAADNAVWEYDYWGQGTQVTVSS,low polyreactivity
11,QVQLVESGGGLVQAGGSLRLSCAASGIIFYGYAMGWYRQAPGKERELVAGISSGGSTYYADSVKGRFTISRDNAKNTVYLQMNSLKPVDTAVSYCNADGGYSYESTDHYGYDYWGQGTQVTVSS,low polyreactivity
12,QVQLVESGGGLVQAGGSLRLSCAASGIIFYGYVMGWYRQAPGKERELVATSTSSGGSTYYADSVKGRFTISRDNAKNTGYLQMNSLKPEDTAVYYCAADYDYGAWVRHDYWGQGTQVTVSS,low polyreactivity
13,QVQLVESGGGLVQAGGSLRLSCAASGIIFYKNAMGWYRQAPGKDRELVAAISGSGGRTYYADSVTGRFTISRDNGKNTVYFQMNSLKPEDTAVYYCAARQPYRHGYESWGQGSQVTVSS,high polyreactivity
14,QVQLVESGGGLVQAGGSLRLSCAASGIIFYLYAMGWYRQAPGKERELVAAISRRGGSTYYADSVKGRFTISRDKAKNTVYLQMNSLKPEDTAVYYCAATIGTFGYGYWGQGTQVTVSS,high polyreactivity
15,QVQLVESGGGLVQAGGSLRLSCAASGIIFYPNAMGWYRQAPGKERELVAAITSDGSTYYADSVKGRFTISRDNAMNTVYLQMNSLKPDDTAVYYCAAWDDYGYDYWGQGTQVTVSS,low polyreactivity
16,QVQLVESGGGLVQAGGSLRLSCAASGIIFYRNAMGWYRQAPGKERELVAAISSSGGRTYYADSVKGRFTISRDNAKNTVYLQMNSLKPEDTAVYYCAADYQWFWVWYGYWGQGTQVTVSS,high polyreactivity
17,QVQLVESGGGLVQAGGSLRLSCAASGIIFYRNTMGWYRQAPGKERELVASISRGGSTYYADSVKGRFTISRDNAKNTVYLPMNTLKPEDTAVYYCSTSGPQDYSRNFDYWGQGTQVTVSS,low polyreactivity
18,QVQLVESGGGLVQAGGSLRLSCAASGIIFYRYAMGWYRQAPGKERELVAAISSSGTNTYYADSVKGRFTISRDNAKNTVYLQMNSLKPEDTAVYYCNSDTWADRSTYDYWGQGTQVTVSS,low polyreactivity
19,QVQLVESGGGLVQAGGSLRLSCAASGIIFYRYAMGWYRQAPGKERELVARITSSTGSTYYADSVKGRFTISRDNAKNTVYLQMNSLKPEDTAVYYCNARRQRNKSYNYWGQGTQVTVSS,high polyreactivity
20,QVQLVESGGGLVQAGGSLRLSCAASGIIFYVNDMGWYREAPGKVRELVADISGGTSTNYADSVKGRFTISRDNAKNTVYLQMNSLKPEDTAVYYCATAFIVPFPGSDYWGQGTQVTVSS,low polyreactivity
21,QVQLVESGGGLVQAGGSLRLSCAASGIIFYWYAMGWYRQAPGKERELVAAITRVGSTNYADSVKGRFTISRDNAKNTVYLQMNSLKPEDTAVYYCAADLWQRHYLVGFGIRYDYWGQGTQVTVSS,low polyreactivity
22,QVQLVESGGGLVQAGGSLRLSCAASGIIFYYNAMGWYRQAPGKERELVAAISSSGGSTSYADSVKGRFTISRDNAKNTVFLQMNSLKPEDTAVYYCAADSYPAYLGFVGFDYWGQGTQVTVSS,low polyreactivity

row,Sequence,polyreactivity (PSR sort gate)
1,QVQLVESGGGLVQAGGSLRLSCAASGIIFYYYAMGWYRQAPGKERELVAAISTSGGRTYYADSVKGRFTISRDNAKNTVYLQMNSLKPEDTAVYYCAKDFWYVTGGWSSGMDYWGQGTQVTVSS,low polyreactivity
2,QVQLVESGGGLVQAGGSLRLSCAASGIIFYYYAMGWYRQAPGKERELVAAISWSGGSTYYADSVKGRFTISRDNAKNTVYLQMNSLKPEDTAVYYCAASSTSGYDWGQGTQVTVSS,low polyreactivity
3,QVQLVESGGGLVQAGGSLRLSCAASGIIFYYYDMGWYRQAPGKERELVAAISWGAGDTYYADSVKGRFTISRDNAKNTVYLQMNSLKPEDTAVYYCAAEFSRSDYQEYDYWGQGTQVTVSS,low polyreactivity
4,QVQLVESGGGLVQAGGSLRLSCAASGIIIAWYAMGWYRQAPGKERELVAAITSGGGSTYYADSVKGRFTISRDNAKNTVYLQMNSLKPEDTAVYYCAADYQTIGWGYDYWGQGTQVTVSS,low polyreactivity
5,QVQLVESGGGLVQAGGSLRLSCAASGIIIDYYTMGWYRQAPGKERELVAAINKSGGSTYADSVKGRFTISRDNAKNTVYLQMNSLKPEDNAVYYCAAEVDYSYWPEYARKYYYWGQGTQVTVSS,low polyreactivity
6,QVQLVESGGGLVQAGGSLRLSCAASGIIIGLYGRGWYRQAPGKERELVAAISSSGGSTYYADSVKGRFTISRDNAKNTVYLQINSLKPEDTAVYYCARVVRSLWGGLYLYDYWGQGTQVTVSS,low polyreactivity
7,QVQLVESGGGLVQAGGSLRLSCAASGIIIHSYTMGWYRPAPGKERELVAAISTSGSTYYADSVKGRFTISRDNAKNTVYLQMHILKPEDTAVYYCNADYAQSGTNSQVGKYGYWGQGTQVTVSS,high polyreactivity
8,QVQLVESGGGLVQAGGSLRLSCAASGIIIRKYAMGWYRQAPGKERELVAAITTRGSRTYYADSVKGRFTISRDNAKNTVYLQMNSLKPEDTAVYYCAADRYTVRMDYWGQGTQVTVSS,high polyreactivity
9,QVQLVESGGGLVQAGGSLRLSCAASGIIIRRYAMGWSRQAPGKERELVAAISWSGGSTYYADSVKGRFTISRDNAKNTVDLQMNSLKPEDTAVYYCAAAAYTRDEYDYWGQGTQVTVSS,high polyreactivity
10,QVQLVESGGGLVQAGGSLRLSCAASGIIIRSYAMGWDRQAPGKERELVAAITRSGGSTYADSVKGRFTISRDNAKNTVYLQKNSLKPEDTAVYYCAADRYSGWVYRRDDWGQGTQVPVSS,low polyreactivity
11,QVQLVESGGGLVQAGGSLRLSCAASGIILGRYAMGWYRQAPGKERELVAAITASGGRTYYADSVKWRFTISRDNAKNTVYLQMNSLKPEDTAVYYCNTVYWGYKSHYDYWGQGTQVTVSS,high polyreactivity
12,QVQLVESGGGLVQAGGSLRLSCAASGIILPYYAMGWYRQAPGKERELVASISQSGSSTYYADSVKGRFTISRDNAKNTVYLQMNSLKPEDTAVYYCNAKPGSWYIRYDYWGQGTQVTVSS,low polyreactivity
13,QVQLVESGGGLVQAGGSLRLSCAASGIILWYNVMGWYRQAPGKERELVASITGDGDDTYYADSVKGRFTMSRDNAKNTVYLQMNSLKPEDTAVYYCAKENYGILYSTLYDYWGQGTQVTVSS,low polyreactivity
14,QVQLVESGGGLVQAGGSLRLSCAASGIILYGYARGWYRPAPGKESELVAAISRRGGITYYADTVKARYTISRDNAKNSVYLQMNSLKPEDTAVYYCAADINRRPSYHPDYEYWGQGTQVTVSS,high polyreactivity
15,QVQLVESGGGLVQAGGSLRLSCAASGIILYRNGMGWYRQAPGKERELVAASSWSTGSTYYADSVKGRFTISRDNAKNTVYLQMNSLKPEDTAVYYCATDYVGYSFGMYYWGQGTQVTVSS,low polyreactivity
16,QVQLVESGGGLVQAGGSLRLSCAASGIILYVNAMGCYRQAPGKEREFVAAISWGGGSTYYADSVKGRFTISRDNAKNTVYLQMNSLKREDTAVYYCAAEFWSGYPTYTYDYWGQGTQVTVSS,low polyreactivity
17,QVQLVESGGGLVQAGGSLRLSCAASGIILYYYAMGWYRQAPGKERELVAAINWSGGSTSYADSVKGRFTISRDNAKNTVYLQMNSLKPEDTAVYYCAARLGSWHYQVWNYKYEYWGQGTQVTVSS,high polyreactivity
18,QVQLVESGGGLVQAGGSLRLSCAASGIIQGVYALGWYRQAPGKERELVAAITSSGGSTYYADSVKGRFTISRDNAKNTVYLQMNSLKPEDTAVYYCAADFDTSVRLYGPTRYDYWGQGTQVTVSS,low polyreactivity
19,QVQLVESGGGLVQAGGSLRLSCAASGIIRHNAMGCYRPAPGKERELVAGISRRGGSTYYADSVKGRFTISRDNAKNTVYLQMNSLKPEDTAVYYCNARSAGSDLDYWGQGTQVTVSS,high polyreactivity
20,QVQLVESGGGLVQAGGSLRLSCAASGIISGRNTMGWFRLARGKERELVAAISGSGGSTHYADSVKGRFPSSRDNAKNTVYLQSNSLKPEDTAVYYCAADTAYVYSMDYWGQGTQVTVSS,high polyreactivity
21,QVQLVESGGGLVQAGGSLRLSCAASGIISRSYTMGWYRQAPGKERELVAVISSSGGSTYYADSVKGRFTISRDNAKNTVYLQMNSLKPEDTAVYYCAARPVTRFQGSDYWGQGTQVTVSS,high polyreactivity
